From patent publication US6617427 (THOMAS JEFFERSON UNIVERSITY, dated 2003)

T1: LexA-CLN3 (UniProt P13365 1-580, limits assumed)
T1 construct: not shown: LexA, fusion partner
T1 sequence (looked up): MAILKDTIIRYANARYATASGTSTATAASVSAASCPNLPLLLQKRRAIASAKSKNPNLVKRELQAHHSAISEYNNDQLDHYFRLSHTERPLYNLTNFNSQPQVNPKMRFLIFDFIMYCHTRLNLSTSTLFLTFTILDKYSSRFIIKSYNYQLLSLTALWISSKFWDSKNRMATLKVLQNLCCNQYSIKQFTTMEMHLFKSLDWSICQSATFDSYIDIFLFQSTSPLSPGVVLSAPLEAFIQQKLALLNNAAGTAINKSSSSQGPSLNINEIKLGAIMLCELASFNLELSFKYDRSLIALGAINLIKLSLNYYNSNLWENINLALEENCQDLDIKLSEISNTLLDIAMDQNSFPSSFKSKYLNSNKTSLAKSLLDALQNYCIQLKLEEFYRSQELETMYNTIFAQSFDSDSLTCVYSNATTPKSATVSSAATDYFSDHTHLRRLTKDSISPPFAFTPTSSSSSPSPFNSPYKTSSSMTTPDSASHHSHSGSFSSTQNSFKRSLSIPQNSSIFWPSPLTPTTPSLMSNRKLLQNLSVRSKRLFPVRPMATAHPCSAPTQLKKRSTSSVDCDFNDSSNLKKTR

T2: LexA-hairy (UniProt P14003 1-337, limits assumed)
T2 construct: not shown: LexA, fusion partner
T2 sequence (looked up): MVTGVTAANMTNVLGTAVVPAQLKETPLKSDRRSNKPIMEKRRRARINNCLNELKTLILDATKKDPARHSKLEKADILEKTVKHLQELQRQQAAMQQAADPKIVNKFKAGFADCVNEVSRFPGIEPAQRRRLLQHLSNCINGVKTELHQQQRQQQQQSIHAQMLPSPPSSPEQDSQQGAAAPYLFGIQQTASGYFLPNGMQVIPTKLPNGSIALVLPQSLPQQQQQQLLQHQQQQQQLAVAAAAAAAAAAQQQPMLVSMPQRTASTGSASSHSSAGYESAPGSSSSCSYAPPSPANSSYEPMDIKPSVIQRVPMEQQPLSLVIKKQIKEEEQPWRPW

T3: LexA-ftz (UniProt P02835 1-410, limits assumed)
T3 construct: not shown: LexA, fusion partner
T3 sequence (looked up): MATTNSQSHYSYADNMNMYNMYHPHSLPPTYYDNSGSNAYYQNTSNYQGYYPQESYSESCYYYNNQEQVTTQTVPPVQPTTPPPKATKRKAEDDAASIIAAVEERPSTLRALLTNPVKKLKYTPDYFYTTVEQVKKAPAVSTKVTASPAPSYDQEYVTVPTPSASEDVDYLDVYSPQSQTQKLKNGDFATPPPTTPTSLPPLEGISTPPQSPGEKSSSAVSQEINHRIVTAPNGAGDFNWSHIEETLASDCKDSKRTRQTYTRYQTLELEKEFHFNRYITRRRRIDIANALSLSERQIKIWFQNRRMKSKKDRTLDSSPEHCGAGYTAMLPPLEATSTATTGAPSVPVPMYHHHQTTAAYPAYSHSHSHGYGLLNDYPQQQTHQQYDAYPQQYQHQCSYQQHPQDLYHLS

T4: LexA-daughterless (UniProt P11420 1-710, limits assumed)
T4 construct: not shown: LexA, fusion partner
T4 sequence (looked up): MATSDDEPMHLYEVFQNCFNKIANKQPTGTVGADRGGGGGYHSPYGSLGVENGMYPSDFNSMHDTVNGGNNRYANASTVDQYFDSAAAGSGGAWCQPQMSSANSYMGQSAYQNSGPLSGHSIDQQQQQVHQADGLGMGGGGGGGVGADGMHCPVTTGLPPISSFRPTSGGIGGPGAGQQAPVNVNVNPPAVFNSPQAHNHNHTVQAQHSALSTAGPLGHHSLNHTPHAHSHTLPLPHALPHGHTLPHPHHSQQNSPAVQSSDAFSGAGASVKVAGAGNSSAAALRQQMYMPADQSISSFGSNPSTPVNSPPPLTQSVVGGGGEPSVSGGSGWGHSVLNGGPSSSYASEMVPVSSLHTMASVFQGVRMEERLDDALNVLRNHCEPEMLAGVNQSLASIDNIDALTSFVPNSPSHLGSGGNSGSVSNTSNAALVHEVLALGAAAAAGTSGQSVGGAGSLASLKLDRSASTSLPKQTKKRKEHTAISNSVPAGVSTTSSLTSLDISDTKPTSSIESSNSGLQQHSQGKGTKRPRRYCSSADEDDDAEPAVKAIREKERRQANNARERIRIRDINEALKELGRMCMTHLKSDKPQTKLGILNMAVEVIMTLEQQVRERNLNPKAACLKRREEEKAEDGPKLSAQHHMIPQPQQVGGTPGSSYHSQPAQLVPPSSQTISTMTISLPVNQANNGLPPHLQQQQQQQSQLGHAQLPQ

B1: B42-Tvl-1 fusion (Tvl-1 a.a. 81-269 fused to the activation domain B42) (other, not shown: large carriers)
chain: VSALPATLDSLSIHQLAAQGELSQLKDHLRKGACPACTCLSGNNLINKPDERGFTPLIWASAFGEIETVRFLLDWGADPHILAKERESALSLASMGGYTDIVRLLLDRDVDINIYDWNGGTPLLYAVRGNHVKCVEALLARGADLTTEADSGYTPMDLAVALGYRKVQQVMESHILRLFQSTLGPVDPE
notes: Yeast two-hybrid prey; also called acid blob-Tvl-1
B2: Tvl-1 N-terminal portion (a.a. 1-96) (other)
chain: MEPTQVAENLVPNQQPPVPDLEDPEDTRDESPENSDTVVLSLFPCTPDAVNPEADASASSLQGSFLKHSTTLTNRQRGNEVSALPATLDSLSIHQL
B3: LexA-bicoid (other, UniProt P09081 2-160, looked up)
chain: AQPPPDQNFYHHPLPHTHTHPHPHSHPHPHSHPHPHHQHPQLQLPPQFRNPFDLLFDERTGAINYNYIRPYLPNQMPKPDVFPSEELPDSLVMRRPRRTRTTFTSSQIAELEQHFLQGRYLTAPRLADLSAKLALGTAQVKIWFKNRRRRHKIQSDQHK
notes: not shown: LexA, fusion partner

What was measured:
LexA-DMcdc2 = target: T5, LexA-DMcdc2 (UniProt P23572 1-297); experiment: yeast interaction mating, B42 Tvl-1 against LexA fusion (data not shown)
T5 construct: not shown: LexA, fusion partner

LexA-CLN3 = target: T1, LexA-CLN3; experiment: as above
LexA-hairy = target: T2, LexA-hairy; experiment: as above
LexA-SSN6 = target: T6, LexA-SSN6 (UniProt P14922 1-966, limits assumed); experiment: as above
T6 construct: not shown: LexA, fusion partner

LexA-ftz = target: T3, LexA-ftz; experiment: as above
LexA-daughterless = target: T4, LexA-daughterless; experiment: as above
LexA-Raf-1 = target: T7, LexA-Raf-1 (human, UniProt P0A7C2 1-202; P04049 1-648, limits assumed); experiment: yeast two-hybrid (data not shown)
T7 construct: Yeast two-hybrid bait; also called LexA fusion of Raf-1 (#1)

[1] = target: B1; experiment: yeast interaction mating, B42 Tvl-1 against LexA fusion (data not shown)

T6 sequence (P14922 whole entry, the tested form may be a part): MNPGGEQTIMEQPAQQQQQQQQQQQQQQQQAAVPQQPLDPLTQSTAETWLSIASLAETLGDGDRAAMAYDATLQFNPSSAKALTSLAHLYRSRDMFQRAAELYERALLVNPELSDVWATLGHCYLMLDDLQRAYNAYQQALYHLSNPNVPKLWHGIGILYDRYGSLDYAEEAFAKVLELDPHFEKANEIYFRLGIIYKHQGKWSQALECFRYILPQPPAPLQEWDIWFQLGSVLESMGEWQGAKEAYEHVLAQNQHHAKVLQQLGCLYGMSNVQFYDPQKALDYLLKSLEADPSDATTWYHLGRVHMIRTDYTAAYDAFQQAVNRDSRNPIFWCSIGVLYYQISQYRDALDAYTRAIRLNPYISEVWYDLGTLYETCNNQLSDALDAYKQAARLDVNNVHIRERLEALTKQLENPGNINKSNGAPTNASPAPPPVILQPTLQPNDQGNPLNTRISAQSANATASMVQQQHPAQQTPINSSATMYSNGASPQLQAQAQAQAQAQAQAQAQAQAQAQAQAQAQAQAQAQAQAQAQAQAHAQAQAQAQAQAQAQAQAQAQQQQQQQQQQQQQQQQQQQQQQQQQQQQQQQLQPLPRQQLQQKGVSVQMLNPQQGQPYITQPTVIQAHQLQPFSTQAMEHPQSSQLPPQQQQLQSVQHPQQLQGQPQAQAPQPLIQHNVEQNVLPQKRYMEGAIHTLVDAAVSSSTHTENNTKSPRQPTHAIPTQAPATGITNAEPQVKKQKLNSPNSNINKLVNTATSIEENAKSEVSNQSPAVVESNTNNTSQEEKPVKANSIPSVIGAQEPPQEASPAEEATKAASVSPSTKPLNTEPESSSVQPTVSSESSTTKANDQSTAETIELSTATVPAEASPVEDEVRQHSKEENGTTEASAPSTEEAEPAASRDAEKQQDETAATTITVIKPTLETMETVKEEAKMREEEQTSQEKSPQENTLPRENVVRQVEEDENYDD
T5 sequence (P23572 whole entry, the tested form may be a part): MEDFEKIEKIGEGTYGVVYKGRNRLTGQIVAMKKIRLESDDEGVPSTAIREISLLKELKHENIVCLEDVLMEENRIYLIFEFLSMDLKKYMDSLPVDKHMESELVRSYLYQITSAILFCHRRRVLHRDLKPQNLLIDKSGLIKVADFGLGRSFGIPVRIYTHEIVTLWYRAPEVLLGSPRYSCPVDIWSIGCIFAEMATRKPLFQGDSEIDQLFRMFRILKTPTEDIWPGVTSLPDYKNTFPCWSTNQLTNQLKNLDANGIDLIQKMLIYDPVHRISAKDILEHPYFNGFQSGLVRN

## B1
LexA-DMcdc2
  binding result: no binding
LexA-CLN3
  binding result: no binding
LexA-hairy
  binding result: no binding
LexA-SSN6
  binding result: no binding
LexA-ftz
  binding result: no binding
LexA-daughterless
  binding result: no binding

## B2
LexA-Raf-1
  binding result: no binding

## B3
[1]
  binding result: no binding
